This is an account of results in the supplement of paper PMC12042874.

The nature of this data set: amyloid nucleation score (Sup35N fusion, yeast selection) (log enrichment); library NNK3; higher = more nucleation; inactive = no reads after selection. The method in brief: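 DiMSum was used to calculate nucleation scores as log enrichment of output over input reads, centred on the mode score of non-aggregating sequences. Sequences with fewer than 100 input reads were not scored. Input and output came from Illumina sequencing of plasmid inserts in psi-negative yeast expressing peptides of 20 random codons fused to Sup35N, induced 24 hours with 100 μM copper sulfate and then grown 7 days at 30°C on medium lacking adenine and uracil.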

± gives the uncertainty stated by the source.

VYESFLLMLFYFRSDCKKKR: the amyloid nucleation score entry was “inactive”.
In the case of IDLKGLGLYSTSEVWARQQK, the amyloid nucleation score result was “inactive”.
Consider YSFMKP, for which the amyloid nucleation score entry was “inactive”.
The value for SWMTTRKGGDVALHASLFRM was “inactive”; that for VLRETLR was “inactive”.
CSCQRPKAFQVQWNGG: the amyloid nucleation score turned out to be 0.789 ± 0.14.
On to LPALEQNVLHLVMVIY, for which the amyloid nucleation score result is “inactive”.
Turning to LVTSTSMG, the amyloid nucleation score is 2.77 ± 0.068.
With FWTKFC the entry was “inactive”; with VPQNVGVLWSRRQEAVVLVS, “inactive”; with VVQGGGELVWFMFYDARCGT, “inactive”.
ADIRFKMRENDMFWSNGWGH: the amyloid nucleation score result is “inactive”.
LCAQGYDLFALCKVYWLREW: the amyloid nucleation score entry is “inactive”.
With GWELTFRSEF the entry was “inactive”.
SLWMFCYSDSYRCKDNFLRN: the amyloid nucleation score entry was “inactive”.
Substance TYSNMCVSDVLCLTLT came in with an amyloid nucleation score of 2.38 ± 0.048.
Take LSKRRTIILGLVELRYSEVE: the amyloid nucleation score entry was “inactive”.
With FWRLRWYMRDGFSDYSGGEY the figure was 0.719 ± 0.13.
WDKMYDDEGKGIVLEVVFLR yielded an amyloid nucleation score of -0.012 ± 0.87.
The value for FCRLGIRSVFIYFKVTSLIV was 0.049 ± 0.47; that for VYLDYGGLHLRVLHTCRFYC was “inactive”; that for WNRTEDMR was “inactive”.
The value for HGKSYILVWCMRHSRTECVR was “inactive”; that for DFEVR was “inactive”; that for AICVLRSMKLLYQVWTW was “inactive”.
On to CRNCR, for which the amyloid nucleation score entry was “inactive”.
Take QSSIVWCVSFIKSRCDFSIC: the amyloid nucleation score result is “inactive”.
As for LFMEDVLRFGLLYLI, the amyloid nucleation score entry was “inactive”.
Consider NGWRCLTVWDLSLYHWGYFL, for which the amyloid nucleation score result was “inactive”.
With PISLCSWATRFCSYFDKHKL, the amyloid nucleation score result is “inactive”.
VNHVIQNLVSNRSTWGICCT: the amyloid nucleation score entry is “inactive”.
Regarding SYRPDSCRLNTMNDFSSCCS, the amyloid nucleation score entry was “inactive”.
As for DWLMPIFQVNIEMLWLSWLW, the amyloid nucleation score entry was “inactive”.
Consider YSWVKEYLSLLSYYCNYRVD, for which the amyloid nucleation score entry is “inactive”.
As for AKTSRMNFKNNFMCQGCKWS, the amyloid nucleation score was -0.604 ± 0.88.
Take FTESVASYELAQVVSRSMLC: the amyloid nucleation score entry was “inactive”.
The value for GLGTAD was “inactive”; that for NLNYRLADSCLNSVLDRLGQ was “inactive”.
As for ESFHMFFFQLLSYCFSNCGW, the amyloid nucleation score result is “inactive”.
Consider FGQSLAEIRFLFIPIDKMRR, for which the amyloid nucleation score result was “inactive”.
RVVLTVFMFLIQSENACKLH: the amyloid nucleation score entry is “inactive”.
With RLQPFVHFVYCWESIVVCMW the figure was 1.56 ± 0.068; with FGSFVRSMALESYLNYINAA, “inactive”; with DANWDTLIFLSSRMNAWRYK, 1.86 ± 0.077.
Consider CDAAWPVNSPFWYLFLWC, for which the amyloid nucleation score result is “inactive”.
Take KLEMYVARSCDCAYDRCWGR: the amyloid nucleation score entry was “inactive”.
On to ALIYNATGLTYF, for which the amyloid nucleation score entry is “inactive”.
As to GTALLRFGIVGPNDLVRLCC, the amyloid nucleation score entry is “inactive”.
With YLSVIKNTIPEMWIIVGVCR, the amyloid nucleation score result was “inactive”.
TTASFFLNKISLKNHRASCT: the amyloid nucleation score result was “inactive”.
For TCACIWGVSVWCYRSQVFAQ, the amyloid nucleation score is -0.455 ± 0.52.
In turn, TWWFK yielded an amyloid nucleation score of -0.234 ± 0.28.
Take WLVGFLFILWV: the amyloid nucleation score entry was “inactive”.
In the case of WFEEATRGRNETS, the amyloid nucleation score entry is “inactive”.
With FILRVFMA the entry was “inactive”; with SFMRRCNVCIRLYSLAFDMT, 0.542 ± 0.23.
As for PIFHGD, the amyloid nucleation score result is “inactive”.
GNIVLMMSYILM came in with an amyloid nucleation score of 2.3 ± 0.086.
YRCYVVVSCWIHLNIKWLMY: the amyloid nucleation score result is “inactive”.
As to MIWAEQGFFVRWWDLFA, the amyloid nucleation score result is “inactive”.
Take QNNTLGVSLVTFRGLVE: the amyloid nucleation score entry is “inactive”.
For the substance DFYLDLITLDNRTTSSTSML, the amyloid nucleation score entry was “inactive”.
The value for AYGRVTMCIGWKDPYGRCL was 0.638 ± 0.31; that for RVGRSR was -0.176 ± 1.4.
In the case of IVFRLANKPRRANRC, the amyloid nucleation score result was “inactive”.
On to WVVKKVPDGRFLFVDCVCGI, for which the amyloid nucleation score result was “inactive”.
On to MLCAPVANLYCKHPWDS, for which the amyloid nucleation score entry was “inactive”.
As to SGHVHNSMKPGRSRTCTMLR, the amyloid nucleation score result was “inactive”.
For the substance RDYILKT, the amyloid nucleation score result was “inactive”.
For FIRKSPWQRFDTHFGIIDFK, the amyloid nucleation score worked out at 0.778 ± 0.17.
With LCDVQNTNNW the entry was “inactive”.
YDRAKSQRIRAQPESTSSVL: the amyloid nucleation score is 0.593 ± 0.19.
With MVNTM the entry was “inactive”; with FLTFHGC, “inactive”.
With AGFRKTMWCIQPVSFLLLKF the figure was 1.74 ± 0.1.
Turning to KCCYRMVVDTV, the amyloid nucleation score result is “inactive”.
With HEYKCKL the entry was “inactive”; with LSVGVSRCLNPLLTIGSGRE, 1.28 ± 0.096; with CVSIGVVMCFCKSRFAITFV, “inactive”.
For the substance IYLMISWQWGSGLQPNIRPA, the amyloid nucleation score entry is “inactive”.
For WGVHCMSQDVRVWWLSLWGG, the amyloid nucleation score result is “inactive”.
For the substance NWLSMQRTLFWP, the amyloid nucleation score is -0.38 ± 0.5.
With FVISYELWAVSERNWSFEMR the entry was “inactive”; with APRRHVKGDSHIRWCVRDR, “inactive”; with LGGNMTCLSQDYLRTSKELL, “inactive”.
The substance CPCDTGVKQVTILEQGWVVM yielded an amyloid nucleation score of 0.963 ± 0.14.
As to FIASNASNCWYLMFVAKLYG, the amyloid nucleation score result was “inactive”.
With HVAGTCAQLTLFKDIGLTYK the entry was “inactive”; with MSMFYSNRHNPVKRTSGTGL, “inactive”.
As for YIVLKYSEMRTRVTDYRTTG, the amyloid nucleation score result was “inactive”.
With CLSYITLPRCLCAHRFKLG, the amyloid nucleation score entry was “inactive”.
On to RLATYALSFPSS, for which the amyloid nucleation score result was “inactive”.
As for FYGHQVNISGDNGVRTRPEV, the amyloid nucleation score entry is “inactive”.
TCKVMSSGYYVLYLDVRV: the amyloid nucleation score result is “inactive”.
Turning to ETVDSFVM, the amyloid nucleation score entry is “inactive”.
IAHVMYNYQHVTSCNMSSVL registered an amyloid nucleation score of 0.726 ± 0.13.
The value for NHESVVWDMNGHPSPVGRGE was “inactive”.
On to NVRGDSRA, for which the amyloid nucleation score entry is “inactive”.
Take YFLGECNPRCYLLRGLAAWN: the amyloid nucleation score entry is “inactive”.
Regarding GTMVSEIDWVRLTYTGYSE, the amyloid nucleation score result is “inactive”.
The substance IAVDFRYCYDYGSNSSCRLA had an amyloid nucleation score of 1.88 ± 0.11.
Substance SFFRMSFC returned an amyloid nucleation score of 2.91 ± 0.06.
For IRTQYQEREASILYM, the amyloid nucleation score result was “inactive”.
As to NTGWSF, the amyloid nucleation score result is “inactive”.
On to NYVTLKSKGITMSWLLLDYR, for which the amyloid nucleation score result was “inactive”.
With SAESKISIVWMEVRINNIFR the figure was 1.67 ± 0.065.
RGITMCMSVL: the amyloid nucleation score entry is “inactive”.
Regarding GCVSGRHDNTFRDYD, the amyloid nucleation score result was “inactive”.
Take KYNWLNKVSTIGTSKGSSIG: the amyloid nucleation score entry is “inactive”.
Take VTQSNGVHKGAR: the amyloid nucleation score result is “inactive”.
For the substance PLDSECEKDGHDTPYDYVVL, the amyloid nucleation score result was “inactive”.
As to ALSYLSVLRSMLSRVVLCYL, the amyloid nucleation score entry was “inactive”.
The value for FVLFGGWLPRVQRLSLGTGR was “inactive”; that for FYFVGKYWRGDEYFDFRLAV was “inactive”.
Substance FRACIVLYNTVHVVHFNISR gave an amyloid nucleation score of 0.565 ± 0.46.
Take LCLFLSQMFSNRYEIFPLFV: the amyloid nucleation score entry is “inactive”.
As to ILSVYDFNWFWKAKRDLYIS, the amyloid nucleation score result is “inactive”.
As to RVVPMVTVGKIRKNLMD, the amyloid nucleation score entry was “inactive”.
Consider ITRWHGSLHSDYGIGICFSI, for which the amyloid nucleation score result was “inactive”.
QPYIVFISGFVSSLWESVRK: the amyloid nucleation score result was “inactive”.
With TNCGNQTILFIIYVTILEVC, the amyloid nucleation score amounted to 0.397 ± 0.14.
For VIAVRYYRLLDRMNVSGSVF, the amyloid nucleation score entry is “inactive”.
The value for VPEVG was “inactive”; that for AESEVDKCLDRGYGAEKTCT was “inactive”.
Substance FNQQLSECVDVARELAGG yielded an amyloid nucleation score of 1.99 ± 0.086.
Regarding NIWLP, the amyloid nucleation score entry is “inactive”.
With RLPPDSQMPSFYCCVDL, the amyloid nucleation score was -0.144 ± 1.1.
With LFGFQNDCYMDNRYW the entry was “inactive”; with ALCCVRPFGNEDKREVMYSN, 0.604 ± 0.24.
With FFRTGFLVGNSSEYYMQY the figure was 0.215 ± 0.46; with LVMLMYVVPGFVGGDFTGDF, “inactive”.
